Experimental data from patent US20200338049A1, “AGENT FOR TREATING FABRY DISEASE, ANALGESIC FOR EXTERNAL USE AND PERSPIRATION ACCELERATOR” (OSAKA UNIVERSITY, priority 2016, published 2020).

How the values were obtained:
[1] = test system: p-mTOR; assay: p-mTOR staining of angiokeratoma of Fabry disease patient before and after ERT; format: in vivo, human; details: p-mTOR fluorescent staining
From the text: (§1) The activation state of mTOR in an angiokeratoma of a Fabry disease patient, and the effects of ERT (conventional treatment method to treat Fabry disease) on an angiokeratoma, were checked. An enzyme used in ERT of this test was agalsidase beta, and specific processes of the treatment method were based on usual dosages.
A piece of the skin of a Fabry disease patient including an angiokeratoma lesion was stained with an anti-p-mTOR antibody, and the activation state of mTOR was checked.

[2] = test system: angiokeratoma of Fabry disease patient; assay: Course of angiokeratomas of Fabry disease patient receiving ERT; format: in vivo, human; details: ERT over eight years
From the text: as §1

[3] = test system: dorsal root ganglion cells (DRG cells); assay: Axon extension of cultured dorsal root ganglion cells; format: cell-based; details: DRG cells of 20-week-old wild-type mouse
Method: Dorsal root ganglion cells (DRG cells) were taken from a 20-week-old wild-type mouse. The dorsal root ganglion nerve cells thus taken were first subjected to extraction with Ham's 12 containing 30% Percoll, and then were cultured at 37° C. for 2 days with the use of a Gibco Neurobasal-A medium (manufactured by Gibco) supplemented with 2 mM GlutaMaxl, 2% B-27 w/o Vitamin A, 5 ng/mL recombinant BDNF carrier free, and 10 ng/mL recombinant human-beta NGF carrier free. Then, the culture medium was replaced with a medium supplemented with 2 mM GlutaMaxl, 2% B-27 w/o Vitamin A, 10 μM Retinoic Acidn, and 100 ng/mL recombinant human-beta NGF carrier free, and then a comparative observation of the extension of axons was carried out with a microscope (BZ-X710, manufactured by KEYENCE), and microscope images were taken.

Row | Molecule | mTOR activity in angiokeratoma after ERT [1] | effect on angiokeratomas [2] | extension of axons [3]
1 | agalsidase beta (protein, UniProt P06280 32-429, looked up, agalsidase beta, enzyme replacement therapy; enzyme used was agalsidase beta, usual dosages) Alpha-galactosidase A: LDNGLARTPTMGWLHWERFMCNLDCQEEPDSCISEKLFMEMAELMVSEGWKDAGYEYLCIDDCWMAPQRDSEGRLQADPQRFPHGIRQLANYVHSKGLKLGIYADVGNKTCAGFPGSFGYYDIDAQTFADWGVDLLKFDGCYCDSLENLADGYKHMSLALNRTGRSIVYSCEWPLYMWPFQKPNYTEIRQYCNHWRNFADIDDSWKSIKSILDWTSFNQERIVDVAGPGGWNDPDMLVIGNFGLSWNQQVTQMALWAIMAAPLFMSNDLRHISPQAKALLQDKDVIAINQDPLGKQGYQLRQGDNFEVWERPLSGLAWAVAMINRQEIGGPRSYTIAVASLGKGVACNPACFITQLLPVKRKLGFYEWTSRLRSHINPTGTVLLQLENTMQMSLKDLL | mTOR is also active | not effective in treating angiokeratomas | –
2 | BDNF: recombinant BDNF carrier free, brain-derived neurotrophic factor (protein, UniProt P23560 19-247, looked up) Neurotrophic factor BDNF …: APMKEANIRGQGGLAYPGVRTHGTLESVNGPKAGSRGLTSLADTFEHVIEELLDEDQKVRPNEENNKDADLYTSRVMLSSQVPLEPPLLFLLEEYKNYLDAANMSMRVRRHSDPARRGELSVCDSISEWVTAADKKTAVDMSGGTVTVLEKVPVSKGQLKQYFYETKCNPMGYTKEGCRGIDKRHWNSQCRTTQSYVRALTMDSKKRIGWRFIRIDTSCVCTLTIKRGR | – | – | axons were found to have extended
